Experiment [1] relates to PEPCK gene promoter in NIH 3T3-L1 clonal cell lines. Put plainly: Truncated CRE-containing PEPCK promoter luciferase reporter (-109 pPC-Luc) in 3T3-L1 clones. The format is cell-based. Conditions: VP16-CREB clones 2-4 and 9-7; muristerone; versus untreated cells. As for the experimental part:
To test the ability of KCREB and VP16-CREB expression to influence gene transcription, a plasmid containing a truncated, CRE-containing portion of the phosphoenolpyruvate carboxykinase (PEPCK) gene promoter linked to a luciferase reporter gene (−109 pPC-Luc) was transfected into each of the clones. […] Four hours later cell lysates were prepared and luciferase activity measured as an index of transcriptional activity. Levels are shown relative to levels of luciferase activity in untreated, control cells (No Add'n).
A general note: A reporter such as luciferase makes a cellular process visible.

Experiment [2] deals with 3T3-L1 cells. Put plainly: 3T3-L1 cell proliferation (Cell-Titer 96 Aq). It is filed as cell-based. The conditions noted are these: muristerone-treated versus control clones, 72 hours. As for the experimental part: 3T3-L1 fibroblasts were passaged and treated with differentiation-inducing agents as previously described (Klemm et al., 1998, J. Biol. Chem., 273:917-923), incorporated herein by reference in its entirety. Plates of 3T3-L1 fibroblasts and adipocytes were grown to 70-80% confluency and transfected with the above-described plasmids with Superfect Reagent (Oiagen, Valencia, Calif.) according to the manufacturer's recommendations. Cells stably transfected with the plasmid, pVgRXR were selected for in conventional medium containing 500 ug/mi Zeocin, and cells stably transfected with pIND-VP16-CREB, pIND-KCREB or pIND-LacZ plasmids were selected for in medium containing 500 ug/ml Geneticin. Large, rapidly growing, well separated colonies were isolated 10 to 12 days after selection was begun with either antibiotic. […] The effect of VP16-CREB and KCREB expression on 3T3-L1 proliferation was assessed by measuring cell number with the Cell-Titer 96 Aq reagent system (Promega Corp., Madison, Wis.).
Two possible mechanisms by which CREB could potentiate adipose differentiation would be by increasing cell proliferation related to clonal expansion, or by inhibiting cell growth as a prelude to terminal differentiation. To examine these possibilities, changes in the rate of cell growth in control versus muristerone-treated VP16-CREB and KCREB expressing clones was measured.

Experiment [3] deals with NIH 3T3-L1 preadipocyte cell lines. Briefly: Adipocyte differentiation assay, Oil Red O staining of triacylglycerol. The conditions noted are these: muristerone-induced expression alone, no differentiation agents, 10 days. It is filed as cell-based. The procedure: Differentiation assays were performed on cells growing on 8 chamber microscope slides. […] The cells were treated with a differentiation mixture, muristerone, or both. […] Muristerone was added to medium at a final concentration of 10 uM for the entire 10 day differentiation period. After 10 days in culture, the cells were stained with Oil Red 0 to visualize triacylglycerol vesicles as previously described (Klemm et al., 1998, J. Biol. Chem., 273:917-923), and counterstained with hematoxylin to visualize cell morphology. Cells were observed by brightfield microscopy and representative fields, were photographed.

Experiment [4] concerns PPARγ2 and FABP expression in 3T3-L1 cell lines. Briefly: Expression of adipocyte-specific markers PPARγ2 (Western) and FABP (RNA blot). It is filed as cell-based. Conditions: muristerone-treated VP16-CREB cell lines, absence of other differentiation-stimulating agents. The procedure: In this experiment, control, VP16-CREB and KCREB expressing cells lines were grown and treated as above. On days 0 and 10 of the experiment, whole cell lysates and total RNA were prepared from duplicate wells of cells. Approximately 25 ug of protein in the cell lysates (lysed directly on multiwell slides in SDS gel loading buffer) was separated on 10% polyacrylamide-SDS gels and transferred to nitrocellulose blots. The blots were probed with a polyclonal antibody to PPARγ2, and the specific PPARγ2 band is indicated by an * in the top row of blots (FIG. 3).
Similarly, 10 ug of total RNA was separated on 1% denaturing (formaldehyde) agarose gels run at 5 V/cm until the Bromophenol Blue tracking dye had migrated half the length of the gel. The gels were soaked in several changes of distilled water, overnight at 4° C., and stained with ethidium bromide and briefly examined in ultraviolet light to insure RNA integrity and equivalent RNA amounts in each lane. The gels were destained in several changes of 5× sodium chloride/sodium citrate (SSC) buffer. RNA was transferred onto nitrocellulose membranes. The resulting blots were heated to 80° C. under vacuum for two hours. The membranes were blocked for 30 minutes at 70° C., and then a biotin-labeled FABP-specific oligonucleotide probe (250 fg/ml) was added for an additional 30 min. […]

In experiment [5] the test system is PEPCK, FABP and FAS gene promoters in 3T3-L1 fibroblasts. Put plainly: Full length PEPCK, FABP and FAS promoter luciferase reporters in 3T3-L1 fibroblasts. The format is cell-based. The conditions noted are these: relative to untreated cells. The procedure:
Control, VP16-CREB or KCREB inducibly expressing 3T3-L1 fibroblasts were transfected with plasmids containing the full length promoters of the PEPCK, FABP or FAS genes linked to luciferase. The cells were cotransfected with the internal control plasmid, pRSV-pGal. […] Cell lysates were then prepared, and luciferase activity measured as an index of transcriptional activity. Levels of transcription are shown relative to levels measured in untreated cells for each promoter tested, and were corrected for transfection efficiency.

Experiment [6] has as its system CREluc reporter in HEK cells. Put plainly: CREluc reporter in HEK cells transfected with CREB constructs. It is filed as cell-based. Conditions: transient transfection of adenoviral expression plasmids. The source says:
CDNA for KCREB, CREB DIEDML and VP16CREB were cloned into adenoviral expression vectors as described previously herein. The plasmids were transiently transfected into HEK cells to assess their impact upon a cotransfected CREluc reporter construct. […] Transfected cells were also lysed and CREB protein content and Flag content assayed Western analysis. All proteins were highly expressed in HEK cells (data not shown).

Experiment [7] deals with BASMC. Put plainly: Transient VP16CREB transfection in BASMC, phenotype. It is filed as cell-based, bovine. Conditions: preliminary transient transfections. The source says: It is expected that dominant negative CREB and sense ICER will lead to SMC phenotypic modulation. If the dose delivered overwhelms the cells, apoptosis may occur. Assays to confirm or deny the induction of apoptosis are readily available in the lab in conjunction with the neurodegeneration REAP. Overexpression of WT CREB is likely to promote a differentiated phenotype. The present inventors have already provided data above showing arrest of cell cycle and decreased migration with CREB overexpression. The constitutively active CREB could induce ICER and promote dedifferentiation, promote proliferation by driving immediate early genes, or maintain the mature phenotype. Adenoviral overexpression of constitutively active signaling elements can lead to non-physiological protein interactions. […] The dominant negative CREB and ICER overexpression experiments will be the most informative for the question of how CREB down-regulation impacts phenotype.

B1: VP16-CREB: constitutively active fusion protein: VP16 transactivation domain (aa 412-490) linked to CREB DNA binding domain (aa 217-327), SEQ ID NO:6 (protein, listed as Homo sapiens)
chain: MAPKKKRKVPGVPSSNCIDTAPPTDVSLGDELHLDGEDVAMAHADAHDDFDLDMLGDGDSPGPGFTPHDSAPYGALDMADFEFEQMFTDALGIDEYGGIDWILVPSNQVVVQAASGDVQTYQIRTAPTSTIAPGVVMASSPALPTQPAEEAARKREVRLMKNREAARECRRKKKEYVKCLENRVAVLENQNKTLIEELKALKDLYCHKSZ
B1: in experiment [1], the “luciferase production from the PEPCK promoter fragment, stimulation” value is recorded as 3.5 to 4 fold. The “rate of cell proliferation” value in experiment [2] is “No significant differences in the rate of cell proliferation”. Moreover, in experiment [3], the “triacylglycerol accumulation and cell morphology (Oil Red O)” value was “sufficient to induce triacylglycerol accumulation and rounded cell morphology”. For the same molecule, in experiment [4], the “PPARγ2 and FABP expression, day 10” value is reported as “easily detected”. Further, the “transcription (luciferase) from full-length PEPCK, FABP and FAS promoters” value in experiment [5] was “stimulated”. The “CREluc reporter luciferase expression” value in experiment [6] is listed as “strongly drive the reporter”. Moreover, in experiment [7], the SMC phenotype result is recorded as “phenotypic changes consistent with increased differentiation”.

Values taken from patent publication US20040097454A1, “Method for modulation of cell phenotype” (University Technology Corporation, priority 1999, published 2004).
